Measured values from patent US20180230235A1.

Target: Human CAIX (carbonic anhydrase IX) (human) (UniProt Q16790)
Assay: ELISA screening, biotinylated human CAIX 0.25 ug/ml, negative control wells

absorbance at 450 nm: 0.1 AU
Substance: negative control of the ELISA screening of the maturated library (designed binder)
